Results from patent publication US20050281829A1, “Fc chimeric proteins with anti-HIV drugs” (priority 2003, published 2005).
Like-named read-outs stand apart in the source and are kept apart here.

What was measured:
[1] = neonatal rats, oral (gavage); FIG. 9
Excerpt: The blood was allowed to clot and the serum was separated and frozen until analysis.

[2] = monkeys, single intravenous bolus; FIG. 8A/8B
Protocol: The animals were sedated with ketamine (≈10 mg/kg) prior to dosing. The hair from the dosing area were clipped, cleansed with alcohol, and air-dried prior to delivering the dose. This was followed by a 3 mL saline flush. Samples were obtained from the femoral vein at indicated times. The blood was allowed to clot and the serum was separated and frozen until analysis.

human serum albumin = human serum albumin (Homo sapiens, UniProt P02768); conditions: SPR, FIG. 11
Protocol: A BIACORE 3000 instrument (Biacore AB Uppsala, Sweden) was used and all binding interactions were performed at 25° C. A carboxymethyl-modified dextran (CM5) sensor chip (Biacore. AB Uppsala, Sweden) was used for analysis. HAS (Albuminar) (Aventis Bridgewater, N.J.) was diluted to 100 μg/mL in 10 mM sodium acetate (pH 4.5) and immobilized to one flowcell of the sensor chip, using amine coupling as described. […] Final immobilization level was approximately 8500 Resonance Units (RU). A “mock-immobilized” surface using a separate flowcell was created using the same procedure in the absence of HSA and served as a reference for the binding studies.
Proteins or peptides (analyte) were diluted in HBS-N buffer (10 mM HEPES, pH 7.4; 150 mM NaCl) and injected over the HSA and reference surfaces for 3 minutes at a rate of 20 μL/min. After a 35 second dissociation phase, the surface was regenerated by a 30 second pulse of 10 mM glycine (pH 2.0) at a flow rate of 60 μL/min.
The sensorgrams (Response Units versus time) generated for the mock-coated flowcell were automatically subtracted from the HSA-coated sensorgrams. Response at equilibrium (Req) was measured 30 seconds before the end of the injection phase and divided by the molecular weight of the analyte (Frostell-Karlsson et al. 2000, J. Med. Chem. 43:1986).

Substance: Fc-T20: Recombinant chimeric protein: human Fc linked via a glycine peptide linker to T20 at the Fc C terminus (SEQ ID NO:4)
- serum half life [1]: 23 h
- serum half life [2]: greater than 40 hours
- binding to human serum albumin (in words) (human serum albumin): reduced binding

Substance: enfuvirtide
- binding to human serum albumin relative to binding of either FcT20 or T20Fc (human serum albumin; 25° C., Req divided by molecular weight): more than 3 fold
